Laboratory results from US6869778.

Legend:
lys-plasminogen, P00747 = molecular target: T1, lys-plasminogen, P00747
T1 chain: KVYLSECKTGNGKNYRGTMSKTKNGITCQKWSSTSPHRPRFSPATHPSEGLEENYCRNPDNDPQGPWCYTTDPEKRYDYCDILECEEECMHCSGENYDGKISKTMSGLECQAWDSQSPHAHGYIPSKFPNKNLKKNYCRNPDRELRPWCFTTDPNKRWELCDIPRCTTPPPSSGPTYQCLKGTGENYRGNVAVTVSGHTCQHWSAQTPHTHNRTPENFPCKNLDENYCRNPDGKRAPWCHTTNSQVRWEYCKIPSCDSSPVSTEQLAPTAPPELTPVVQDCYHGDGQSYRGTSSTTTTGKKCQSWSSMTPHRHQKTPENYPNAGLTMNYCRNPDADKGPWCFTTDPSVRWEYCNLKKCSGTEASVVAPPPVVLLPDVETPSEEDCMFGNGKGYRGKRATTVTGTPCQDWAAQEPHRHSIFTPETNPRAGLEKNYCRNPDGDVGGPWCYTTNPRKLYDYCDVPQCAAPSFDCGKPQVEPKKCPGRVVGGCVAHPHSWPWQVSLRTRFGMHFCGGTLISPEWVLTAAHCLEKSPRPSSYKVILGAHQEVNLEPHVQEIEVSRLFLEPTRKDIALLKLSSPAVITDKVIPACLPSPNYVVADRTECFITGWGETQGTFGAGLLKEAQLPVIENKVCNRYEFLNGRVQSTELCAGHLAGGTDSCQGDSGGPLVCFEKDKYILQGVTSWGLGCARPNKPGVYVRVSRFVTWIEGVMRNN

[1] = molecular target: stimulatory thirteen amino acid peptide P368
[2] = molecular target: soluble fibrin monomers (DESAFIB)

B1: t-PA/R275E,K429Y, single-chain form (protein)
chain: SYQVICRDEKTQMIYQQHQSWLRPVLRSNRVEYCWCNSGRAQCHSVPVKSCSEPRCFNGGTCQQALYFSDFVCQCPEGFAGKCCEIDTRATCYEDQGISYRGTWSTAESGAECTNWNSSALAQKPYSGRRPDAIRLGLGNHNYCRNPDRDSKPWCYVFKAGKYSSEFCSTPACSEGNSDCYFGNGSAYRGTHSLTESGASCLPWNSMILIGKVYTAQNPSAQALGLGKHNYCRNPDGDAKPWCHVLKNRRLTWEYCDVPSCSTCGLRQYSQPQFEIKGGLFADIASHPWQAAIFAKHRRSPGERFLCGGILISSCWILSAAHCFQERFPPHHLTVILGRTYRVVPGEEEQKFEVEKYIVHKEFDDDTYDNDIALLQLKSDSSRCAQESSVVRTVCLPPADLQLPDWTECELSGYGKHEALSPFYSERLYEAHVRLYPSSRCTSQHLLNRTVTDNMLCAGDTRSGGPQANLHDACQGDSGGPLVCLNDGRMTLVGIISWGLGCGQKDVPGVYTKVTNYLDWIRDNMRP
Kcat of plasminogen activation in the absence of a cofactor (lys-plasminogen, P00747): 0.00046 s⁻¹
Kcat of plasminogen activation in the presence of fibrin (lys-plasminogen, P00747): 0.1 s⁻¹
Kcat/Km of plasminogen activation in the absence of a cofactor (lys-plasminogen, P00747): 78 M⁻¹ s⁻¹
Kcat/Km of plasminogen activation in the presence of fibrin (lys-plasminogen, P00747): 2e+06 M⁻¹ s⁻¹
Km of plasminogen activation in the absence of a cofactor (lys-plasminogen, P00747): 5.9 µM
Km of plasminogen activation in the presence of fibrin (lys-plasminogen, P00747): 0.07 µM
fold reduction of activity toward plasminogen without co-factor, against single chain t-PA/R275E (lys-plasminogen, P00747): reduced by a factor of 17
percent of the activity of single chain t-PA/R275E toward plasminogen in the presence of fibrin (lys-plasminogen, P00747): approximately 40% of the activity of single chain t-PA/R275E
stimulation of plasminogen activation by co-factor (indirect chromogenic assay) [1]: virtually nonresponsive
stimulation of plasminogen activation by co-factor (indirect chromogenic assay) (fibrinogen): virtually nonresponsive
Fold stimulation of kcat/Km by fibrin [2]: 26000 fold
fibrin selectivity factor (specific activity in the presence of fibrin over that in the presence of fibrinogen) [2]: The fibrin selectivity factor for single chain t-PA/R275E,K429Y, however, is 146
stimulation of plasminogen activation by co-factor (indirect chromogenic assay) [2]: dramatically stimulated by fibrin monomers
